B1: Azoarcus group I ribozyme (parent)
chain: GUGCCUUGCGCCGGGAAACCACGCAAGGGAUGGUGUCAAAUUCGGCGAAACCUAAGCGCCCGCCCGGGCGUAUGGCAACGCCGAGCCAAGCUUCGGCGCCUGCGCCGAUGAAGGUGUAGAGACUAGACGGCACCCACCUAAGGCAAACGCUAUGGUGAAGGCAUAGUCCAGGGAGUGGCGAAAGUCACACAAACCGG

Variants of: B1
Assay: reverse-splicing fitness (ratio to wild type); higher = more active; in vitro selection; Mg2+ level not given
Summary of the method: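 An in vitro group I ribozyme library with randomized positions was T7-transcribed and gel-purified. In triplicate, 10 pmol RNA in EPPS pH 7.5 was reacted with 50 pmoles of a 30-nt RNA substrate for 1 h at 37 °C across several added MgCl2 levels (1–48 mM), then stopped with EDTA. Products were reverse transcribed from a substrate-complementary primer, PCR-amplified and sequenced (HiSeq 4000). Fitness is a variant's read proportion after selection over that before, normalised to wild type.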

Variant | reverse-splicing fitness
GUGCCUUGCGCCGGGAAACCACGCAAGGGAUGGUGUCAAAUUCGGCGAAACCUAAGCGCCCGCCCGGGCGUAUGGCAACGCAGAGCCAAGCUUCGGCGCCUGCGCCGAUGUAGGUGUAGCGACUAGACGGCACCCACCUAAGGCCAACGAUAUGGUGAAGGCAUAGUCGAGGGAGUGGCGAAAGUCACACAAACCGG | 0.00947
GUGCCUUGCGCCGGGAAACCACGCAAGGGAUGGUGUCAAAUUCGGCGAAACCUAAGCGCCCGCCCGGGCGUAUGGCAACGCAGAGCCAAGCUUCGGCGCCUGCGCCGAUGUAGGUGUAGCGACUAGACGGCACCCACCUAAGGCCAACGAUAUGGUGAAGGCAUAGUCAAGGGAGUGGCGAAAGUCACACAAACCGG | 0.01
GUGCCUUGCGCCGGGAAACCACGCAAGGGAUGGUGUCAAAUUCGGCGAAACCUAAGCGCCCGCCCGGGCGUAUGGCAACGCAGAGCCAAGCUUCGGCGCCUGCGCCGAUGUAGGUGUAGCGACUAGACGGCACCCACCUAAGGCCAACGAUAUGGUGAAGGCAUAGUCUAGGGAGUGGCGAAAGUCACACAAACCGG | 0.0111
GUGCCUUGCGCCGGGAAACCACGCAAGGGAUGGUGUCAAAUUCGGCGAAACCUAAGCGCCCGCCCGGGCGUAUGGCAACGCAGAGCCAAGCUUCGGCGCCUGCGCCGAUGUAGGUGUAGCGACUAGACGGCACCCACCUAAGGCCAACGAUAUGGUGAAGGCAUAGUCGAGGGAGAGGCGAAAGUCACACAAACCGG | 0.0385
GUGCCUUGCGCCGGGAAACCACGCAAGGGAUGGUGUCAAAUUCGGCGAAACCUAAGCGCCCGCCCGGGCGUAUGGCAACGCAGAGCCAAGCUUCGGCGCCUGCGCCGAUGUAGGUGUAGCGACUAGACGGCACCCACCUAAGGCCAACGAUAUGGUGAAGGCAUAGUCGAGGGAGCGGCGAAAGUCACACAAACCGG | 0.0348
GUGCCUUGCGCCGGGAAACCACGCAAGGGAUGGUGUCAAAUUCGGCGAAACCUAAGCGCCCGCCCGGGCGUAUGGCAACGCAGAGCCAAGCUUCGGCGCCUGCGCCGAUGUAGGUGUAGCGACUAGACGGCACCCACCUAAGGCCAACGAUAUGGUGAAGGCAUAGUCGAGGGAGGGGCGAAAGUCACACAAACCGG | 0.0101
GUGCCUUGCGCCGGGAAACCACGCAAGGGAUGGUGUCAAAUUCGGCGAAACCUAAGCGCCCGCCCGGGCGUAUGGCAACGCAGAGCCAAGCUUCGGCGCCUGCGCCGAUGGAGGUGUAGAGACUAGACGGCACCCACCUAAGGCAAACGCUAUGGUGAAGGCAUAGUCAAGGGAGAGGCGAAAGUCACACAAACCGG | 0.0155
GUGCCUUGCGCCGGGAAACCACGCAAGGGAUGGUGUCAAAUUCGGCGAAACCUAAGCGCCCGCCCGGGCGUAUGGCAACGCAGAGCCAAGCUUCGGCGCCUGCGCCGAUGGAGGUGUAGAGACUAGACGGCACCCACCUAAGGCAAACGCUAUGGUGAAGGCAUAGUCAAGGGAGGGGCGAAAGUCACACAAACCGG | 0.00616
GUGCCUUGCGCCGGGAAACCACGCAAGGGAUGGUGUCAAAUUCGGCGAAACCUAAGCGCCCGCCCGGGCGUAUGGCAACGCAGAGCCAAGCUUCGGCGCCUGCGCCGAUGGAGGUGUAGAGACUAGACGGCACCCACCUAAGGCAAACGCUAUGGUGAAGGCAUAGUCAAGGGAGCGGCGAAAGUCACACAAACCGG | 0.019
GUGCCUUGCGCCGGGAAACCACGCAAGGGAUGGUGUCAAAUUCGGCGAAACCUAAGCGCCCGCCCGGGCGUAUGGCAACGCAGAGCCAAGCUUCGGCGCCUGCGCCGAUGUAGGUGUAGCGACUAGACGGCACCCACCUAAGGCCAACGCUAUGGUGAAGGCAUAGUCCAGGGAGUGGCGAAAGUCACACAAACCGG | 0.0267
GUGCCUUGCGCCGGGAAACCACGCAAGGGAUGGUGUCAAAUUCGGCGAAACCUAAGCGCCCGCCCGGGCGUAUGGCAACGCAGAGCCAAGCUUCGGCGCCUGCGCCGAUGUAGGUGUAGCGACUAGACGGCACCCACCUAAGGCCAACGAUAUGGUGAAGGCAUAGUCCAGGGAGUGGCGAAAGUCACACAAACCGG | 0.012
GUGCCUUGCGCCGGGAAACCACGCAAGGGAUGGUGUCAAAUUCGGCGAAACCUAAGCGCCCGCCCGGGCGUAUGGCAACGCAGAGCCAAGCUUCGGCGCCUGCGCCGAUGGAGGUGUAGAGACUAGACGGCACCCACCUAAGGCAAACGCUAUGGUGAAGGCAUAGUCGAGGGAGUGGCGAAAGUCACACAAACCGG | 0.00926
GUGCCUUGCGCCGGGAAACCACGCAAGGGAUGGUGUCAAAUUCGGCGAAACCUAAGCGCCCGCCCGGGCGUAUGGCAACGCAGAGCCAAGCUUCGGCGCCUGCGCCGAUGGAGGUGUAGAGACUAGACGGCACCCACCUAAGGCAAACGCUAUGGUGAAGGCAUAGUCUAGGGAGUGGCGAAAGUCACACAAACCGG | 0.0132
GUGCCUUGCGCCGGGAAACCACGCAAGGGAUGGUGUCAAAUUCGGCGAAACCUAAGCGCCCGCCCGGGCGUAUGGCAACGCAGAGCCAAGCUUCGGCGCCUGCGCCGAUGGAGGUGUAGAGACUAGACGGCACCCACCUAAGGCAAACGCUAUGGUGAAGGCAUAGUCAAGGGAGUGGCGAAAGUCACACAAACCGG | 0.00855
GUGCCUUGCGCCGGGAAACCACGCAAGGGAUGGUGUCAAAUUCGGCGAAACCUAAGCGCCCGCCCGGGCGUAUGGCAACGCAGAGCCAAGCUUCGGCGCCUGCGCCGAUGUAGGUGUAGCGACUAGACGGCACCCACCUAAGGCCAACGAUAUGGUGAAGGCAUAGUCAAGGGAGGGGCGAAAGUCACACAAACCGG | 0.00772

— the RNAGym collection of RNA variant scans (doi:10.1093/molbev/msab373)
